The text below walks through data of paper PMC9039348.

pKd: −log10 of the molar value.

The target in the assay is microtubules (MTs) polymerised from porcine brain tubulin, taxol-stabilised (porcine) (UniProt P02550). Nature of the assay: co-sedimentation; GST-rMap7D2 proteins incubated with 0.4 mg/ml taxol-stabilised MTs in polymerization buffer (80 mM PIPES/NaOH pH 6.8, 1 mM MgCl2, 1 mM EGTA, 1 mM GTP) with 15 μM taxol, 20 min at 37°C; centrifuged at 100,000g for 30 min at 37°C through a 50% sucrose cushion; supernatant and pellet by SDS-PAGE, CBB staining, densitometer; Scatchard analysis.

As for “GST-rMap7D2 (full length) (from UniProt D4A4L4 1-763) (natural protein)”, the pKd (in general, the Kd on a negative log10 scale, so that one unit is a factor of ten) is 6.22. Moreover, the stoichiometry N (as a rule, the number of molecules, sites or subunits per partner or assembly) (scale: tubulin α/β heterodimers per GST-rMap7D2 molecule) is 10.
